The record followed here is the nanobody polyreactivity screen of Harvey et al. (2022).

The nature of this data set: yeast display, Sf9 membrane polyspecificity reagent, FACS + sequencing; frameworks hold sequencing errors. In short, it runs like this: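 Synthetic nanobody libraries on Saccharomyces cerevisiae BJ5465 were galactose-induced for 36–48 hours, stained 1 hour at 4 °C with 10% biotinylated, detergent-solubilized Sf9 membrane reagent and enriched on streptavidin microbeads. FACS then separated cells into low and high (top ~1%) gates by anti-HA (expression) and streptavidin (reagent binding) fluorescence. Genes were colony-PCR amplified, MiSeq 2 × 250 sequenced and CDR-length filtered. A clone's polyreactivity label is that of its gate of origin.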
Regarding “QVNLVESGGGLVQAGGSLRLSCAASGIIFRSYAMGWYRPAPGKARELVADITSTGTSTYYADSVKGRFTISRDNAKNTVYLQMNSLKPEDNAVYYCNADRFGFYPQRDYWGQGTQVTVSW”, the “polyreactivity (PSR sort gate)” value is recorded as “high polyreactivity”.

For “QVPLVEKGGGLVQAGGSLRLSCAASGFTIGYYAMGWYRQAPGKERELVAASTWRGDTTYYADSVKGRFTISRDNAKNTVYLQMNSLKPEDTAVYYCAAEYEVYFDWSYYYWGQGTQVTVSS”, the “polyreactivity (PSR sort gate)” value was “high polyreactivity”.

Consider “QVPLVESGGGIVQAGGSLRLSCAASGRTFRYNAMGWDRQAPGKEREKVAAITYGGGSTYYADSVKGRFTISRDNEKNTVYLQMNILKPEDTAVYYCATRGVSPSRPGYYCGQGTQVTVSS”, for which the “polyreactivity (PSR sort gate)” value was “high polyreactivity”.

On to “QVPLVESGGGLVQAGCSLRLSCAASGSIFTRDAMGWYRPAPGKERELVAAISAGGGTTYYADSVKGRFTNSRDNAKNTVYLLMNSLKPEDSSVFYCAKRSRSGYYADDSWGHGTQVTVSS”, for which the “polyreactivity (PSR sort gate)” value is “high polyreactivity”.

For the sequence “QVPLVESGGGLVQAGGSLRLSCAASGRTFGIYAMGWYRQEPGKERELVATISWRGGSTNYADSVKGRFTISRDNAKNTVYLQMNSLKPEDTAVYYCAADPCGFGYPYLTRGTDGYDYWGQGTQVTVSS”, the “polyreactivity (PSR sort gate)” value is given as “low polyreactivity”.

With “QVPLVESGGGLVQAGGSLRLSCAASGSICGGYAMGWYRQAPGKERELVAGITYSGDSTYYADSVKGRFTISRDNAKNTVYLQMNSLKPEDTAGYYCNADQRVDHDDFDYWGQGTQVTVSS”, the “polyreactivity (PSR sort gate)” value is listed as “low polyreactivity”.

With “QVPLVESGGGLVQAGGSLRLSCAASGSIFAPYTMGWYRQAPGKERELVAAISVTTGITYYADTLKGRFTISRDNAKNTVYLQMNSLKPEDTGVYYCAAELYKSLWYEYWGQGTQVTVSS”, the “polyreactivity (PSR sort gate)” value is recorded as “low polyreactivity”.

With “QVPLVESGGGLVQAGGSLRLSCAAYGFTFWTYAMGWYRQAPGKDRELVAAISRSAGRTYYADSVKGRFTISRDNAKNTVYLQMNSLKPEVSAVYYCNARAGYERYGYWGQGSQVTVSS”, the “polyreactivity (PSR sort gate)” value was “high polyreactivity”.

Regarding “QVQFEESGGGLVQAGGSLRLSCAASGSTFQGYAMGWSRQAPGKERELVAAISSGGSTNYADSVKGRFTISRDNAKNTVYLQMNSLKPEDTAVYYCNVDLTTVGHWYYYRPGYDYWGQGTQVTVSS”, the “polyreactivity (PSR sort gate)” value is “low polyreactivity”.

For “QVQHEESGGGLVQAGGRLRLSCAASGRIFKQYALGGYRQAPGKERELVAAISVRGGITYYADSVKGRFTISRDNAMNTVYLQMNSLKPEDTAVYYCAKRSFRTHTYDYWGHGTQVTVSS”, the “polyreactivity (PSR sort gate)” value is reported as “low polyreactivity”.

“QVQHEESGGGLVQAGGSLRLSCAASGSIIRYYPMGWYRQATGKQRELVAAISRDDSRTYYADSVRGRFTISLDNAKNTVYLQMNSLKPEDTAVYYCAADSSRYTRYLYYYWGQGTQVTVSS”: the “polyreactivity (PSR sort gate)” value is listed as “high polyreactivity”.

On to “QVQHEESGGGLVQAGGSLRLSSAASGSTFVDYDMGCYRQAPGKVRELVAGITTGGSTNYADSVKGRFTISRDNALNTVYLQLKRLKPEDTAVYYCNSDSYTNLVPDYLYYWYEYWGQGTQVTVSS”, for which the “polyreactivity (PSR sort gate)” value was “low polyreactivity”.

On to “QVQHEESGVGLVQAGGRLRVSCAASGSTFAANTMGWYRTAPGKERELVAAITVRGGSTYYADSVKGRFSISRDNAKNTVYLQMISLKPEDTAVYYCAAERPPYGYLVVGFVSTQYYYWGQGTQVTVSS”, for which the “polyreactivity (PSR sort gate)” value is listed as “low polyreactivity”.

For “QVQHGESGGGIVQAVVSLRLSCSASGFTFYYYPMGWYRQAPGKERELVAAIDTGGSTNYADSVKGRFTMSRDNAKNTVYLQMNSLKPEDTAVYYCNALQPGLGSPLGEYDYWGQGTQVTVSS”, the “polyreactivity (PSR sort gate)” value is “low polyreactivity”.

“QVQHVDSGGGIVQAGGSLRLSCAPSGRTILRYTMGWYRHAPGKERELVASITRGGSSYYADSVKGRFTISRDNAKNTVYLQMNSLKPEDTAVYYCAARRYYGVYYAFYYWGQGTQVTVSS”: the “polyreactivity (PSR sort gate)” value is recorded as “high polyreactivity”.

In the case of “QVQHVDSGGGLVQAGGSLRLSCAASGSTFQLYAMGRDRQAPGKERELVASISWSGGSTYYADSVKGRFTISRDNAKNTVYLQMNSLKPEDTAVYSCNDDFWWRYRPGAVFPSYGYWGQGTQVTVSS”, the “polyreactivity (PSR sort gate)” value was “low polyreactivity”.
